Substrate: NC(=O)CCC(N)C(=O)Nc1ccc2ccccc2c1
Experiment: Continuous spectrophotometric QC assay (glutamate dehydrogenase coupled), substrate kinetics;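 also: initial rates read on a microplate reader at 30 °C, with enzyme activity quantified against an ammonia calibration curve under the same assay conditions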
Assay type: biochemical
Details: other: Human QC
[1] = 0.05M Tris-HCl, pH 8.0, 0.5 M KCl, pH 8.0

Protocol: The initial velocities were evaluated and the enzymatic activity was determined from a standard curve of ammonia under assay conditions. All samples were measured at 30° C., using either the [sequence]luor Plus or the Sunrise (both from TECAN) reader for microplates. Kinetic data was evaluated using GraFit software.

B1: human QC (Homo sapiens) (protein)
chain: VSPSASAWPEEKNYHQPAILNSSALRQIAEGTSISEMWQNDLQPLLIERYPGSPGSYAARQHIMQRIQRLQADWVLEIDTFLSQTPYGYRSFSNIISTLNPTAKRHLVLACHYDSKYFSHWNNRVFVGATDSAVPCAMMLELARALDKKLLSLKTVSDSKPDLSLQLIFFDGEEAFLHWSPQDSLYGSRHLAAKMASTPHPPGARGTSQLHGMDLLVLLDLIGAPNPTFPNFFPNSARWFERLQAIEHELHELGLLKDHSLEGRYFQNYSYGGVIQDDHIPFLRRGVPVLHLIPSPFPEVWHTMDDNEENLDESTIDNLNKILQVFVLEYLHL
notes: The cDNA of the mature QC starting with codon 38 was fused in frame with the plasmid encoded 6× histidine tag; 6xHis; made in house; host or cells: Pichia pastoris X33 (pPICZαB, secreted); also E. coli M15 (pQE-31)
Km (0.05M Tris-HCl, pH 8.0): 0.076 ± 0.004 mM | kcat (0.05M Tris-HCl, pH 8.0): 21.7 ± 0.5 s⁻¹ | kcat/Km (0.05M Tris-HCl, pH 8.0): 285 ± 8 mM⁻¹ s⁻¹ | Km [1]: 0.063 ± 0.003 mM | kcat [1]: 20.0 ± 0.4 s⁻¹ | kcat/Km [1]: 318 ± 9 mM⁻¹ s⁻¹ | Km (pH 8.8): 0.07 ± 0.003 mM | kcat (pH 8.8): 20.6 ± 0.5 s⁻¹

— patent US8809010B2, “Method for prophylactic treatment of alzheimer's disease using inhibitors of glutaminyl cyclase and glutamate cyclases” (Probiodrug AG, priority 2003, dated 2014)
